{"source": "patent CN110538321A", "about": "(JIANGSU HENGRUI MEDICINE CO; SHANGHAI HENGRUI …, dated 2019)", "binders": {"B1": {"name": "hu167-31 (antibody, V domains shown)", "VH": "QVQLVQSGAEVKKPGASVKVSCKASGYTFTSYWMHWVRQAPGQGLEWMGNIDPSDSETHYNQKFKDRVTMTRDTSISTAYMELSRLRSDDTAVYYCARWGYLGRSAMDYWGQGTTVTVSS", "VL": "DVQMTQSPSSLSASVGDRVTITCRTSKSISKFLAWYQQKPGKAPKLLIYSGSTLQSGVPSRFSGSGSGTDFTLTISSLQPEDFATYYCQQHNEYPWTFGGGTKVEIK"}, "B2": {"name": "hu167-32 (antibody, V domains shown)", "VH": "B1 VH", "VL": "B1 VL with V2I, M4I"}, "B3": {"name": "hu167-33 (antibody, human IgG4 S228P, kappa, F234A L235A, V domains shown)", "VH": "B1 VH", "VL": "DVQITQSPSSLSASVGDRVTITCRTSKSISKFLAWYQQKPGKAPKLLIYSGSTLQSGVPSRFSGSGSGTDFTLTISSLQPEDFATYYCQQHNEYPWTFGGGTKVEIKR"}, "B4": {"name": "嵌合抗体ch-055 (antibody, V domains shown)", "VH": "QVLLQQSGPELVQPGASVKISCKASGYSFTSSYLHWVKQRPGQGLDWIGWIYPESGNTKYNERFKGKATLTADTSSSTAYMQLSSLTSEDSAVYYCSRRGDVFFAYWGQGTTLTVSS", "VL": "DIVMTQSPSYLTVTAGEKVTMSCKSSQSLLTSGKQKNYLTWYQQKPGQPPKLLIYWASTRESGVPERFRGSGSGTDFTLTISSVQAEDLAVYYCQNDYSYPLTFGAGTKLELN", "notes": "Chimeric antibody of clone 055"}, "B5": {"name": "杂交瘤克隆055鼠源抗体 (antibody, V domains shown)", "VH": "B4 VH", "VL": "B4 VL", "notes": "Mouse hybridoma antibody; also called 鼠源抗体055"}, "B6": {"name": "杂交瘤克隆167鼠源抗体 (antibody, V domains shown)", "VH": "QVQLQQPGAELVRPGSSVKLSCKASGYTFTSYWMHWVKQRPIQGLEWVGNIDPSDSETHYNQKFKDKATLTVDKSSSTAYMQLSSLTSEDSAVYYCARWGYLGRSAMDYWGQGTSVTVSS", "VL": "DVQITQSPSYLAASPGETITINCRTSKSISKFLAWYQEKPGKTHKLLIYSGSTLQSGIPSRFSGSGSGTDFTLTISSLEPEDFAMYYCQQHNEYPWTFGGGTKLEIK", "notes": "Mouse hybridoma antibody; also called 鼠源抗体167"}, "B7": {"name": "hu055-5 (antibody, human IgG4 S228P, kappa, F234A L235A, V domains shown)", "VH": "QVQLVQSGAEVKKPGASVKVSCKASGYTFTSSYLHWVRQAPGQRLDWIGWIYPESGNTKYNERFKGRATLTADTSASTAYMELSSLRSEDTAVYYCARRGDVFFAYWGQGTTVTVSS", "VL": "DIVMTQSPDSLAVSLGERATINCKSSQSLLTSGKQKNYLTWYQQKPGQPPKLLIYWASTRESGVPDRFSGSGSGTDFTLTISSLQAEDVAVYYCQNDYSYPLTFGQGTKLEIKR"}}, "key": {"[1]": {"target": "T1, 人CD47蛋白 (Leukocyte surface antigen CD47) (human, UniProt Q08722 19-141)", "T1 construct": "extracellular domain; The assays say only 'CD47'; also called human CD47", "T1 sequence (Q08722 19-141 limits assumed)": "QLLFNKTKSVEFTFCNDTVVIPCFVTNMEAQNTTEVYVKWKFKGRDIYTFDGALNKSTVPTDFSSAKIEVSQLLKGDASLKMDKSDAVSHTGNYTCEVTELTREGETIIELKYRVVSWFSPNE", "assay": "Biacore (SPR)"}, "[2]": {"target": "T1, 人CD47蛋白 (Leukocyte surface antigen CD47)", "assay": "Biacore (SPR), reference antibody of the comparison"}, "[3]": {"target": "T1, 人CD47蛋白 (Leukocyte surface antigen CD47)", "assay": "CD47 binding ELISA, hybridoma screening"}}, "note": "Residue numbers refer to the chain shown, from its start.", "data": [{"binder": "B1", "values": [{"measurement": "KD ratio relative to hu167-4", "setting": "[1]", "value": 1.3}]}, {"binder": "B2", "values": [{"measurement": "KD ratio relative to hu167-4", "setting": "[1]", "value": 1.2}]}, {"binder": "B3", "values": [{"measurement": "KD ratio relative to hu167-4", "setting": "[1]", "value": 0.98}]}, {"binder": "B4", "values": [{"measurement": "binding result", "setting": "[2]", "value": "binds"}]}, {"binder": "B5", "values": [{"measurement": "binding result", "setting": "[3]", "value": "binds"}]}, {"binder": "B6", "values": [{"measurement": "binding result", "setting": "[3]", "value": "binds"}]}, {"binder": "B7", "values": [{"measurement": "binding result", "setting": "[1]", "value": "binds"}]}]}
